# Measurements taken from the nanobody polyreactivity screen of Harvey et al. (2022).
# Assay: yeast display, Sf9 membrane polyspecificity reagent, FACS + sequencing; frameworks hold sequencing errors
# Method in brief: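 A synthetic nanobody library was expressed on Saccharomyces cerevisiae BJ5465 by galactose induction for 36–48 hours. The library was stained for 1 hour at 4 °C with 10% biotinylated, detergent-solubilized Sf9 membrane reagent and enriched with streptavidin microbeads before FACS. Low and high (top ~1%) gates were set on anti-HA fluorescence for expression and streptavidin fluorescence for reagent binding, and each polyreactivity label reflects the gate of origin.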
row,Sequence,polyreactivity (PSR sort gate)
1,QVQLVESGGGLVQAGGSLRLSCAASGRTFILNAMGLYRQAPGKERELVAAISWSGGSTYYADSVKGRFTISRDNAKNTVYLQMNSLKPEDTAVYYCAAETYAYLFHTYDYWGQGTQVTVSS,low polyreactivity
2,QVQLVESGGGLVQAGGSLRLSCAASGRTFINYAMGWYRQAPGKERELVAAITTGGRTNYADSVKGRFTISRDNAKHTVYLQMNSLKPEDTAVYYCAADRYYWGRYTLNYWGQGTQVTVSS,low polyreactivity
3,QVQLVESGGGLVQAGGSLRLSCAASGRTFIRYAMGGYRQATGKERELVAAISWSGGSTYYADSVKGRFTISRDNAKNTVYLQMNSLKPEDTAVYYCARRVGYKFSYDYWGQGTQVTVSS,high polyreactivity
4,QVQLVESGGGLVQAGGSLRLSCAASGRTFIRYTMGWYRQASGKERELVAAITSTGRTYYADSVKGRFTFSRDNAKNTVYLEMNSLKPEDTAVYYCAAKQSWEVYDYWGQGTQVTVSS,low polyreactivity
5,QVQLVESGGGLVQAGGSLRLSCAASGRTFISNVMGWYRQAPGKERELVAAIRSSGRTYYADSVKGRFTISRDNAKNTVYFQMNSLKPEDTAVYYCAAPGGLLGSGYWGQGTQVTVSS,low polyreactivity
6,QVQLVESGGGLVQAGGSLRLSCAASGRTFIVNTMGRYRQAPGKERELVAAITARGGRTYYADSVKGRFTISRDNAKNTVYLQMNSLKPEDTAVYYCNARTPPREAERYYWGLGTQVTVSS,low polyreactivity
7,QVQLVESGGGLVQAGGSLRLSCAASGRTFIYNTMGGYRQAPGKERELVAAITGNGGSTYYADSVKGRFTISRDYEKNTVYFQMNSLKPEDTAVYYCNAVGFDQPRYYYWGQGTQVTVSS,high polyreactivity
8,QVQLVESGGGLVQAGGSLRLSCAASGRTFIYNVMGWYRQAPGKERELVASIRSSGGSTYYADSVKGRFTISRDNAKNTVYLQMNSLKPEDTAVYYCAADRSPGIRGWPGDYWGQGTQVTVSS,low polyreactivity
9,QVQLVESGGGLVQAGGSLRLSCAASGRTFIYYAMGWYRQAPGKERELVAGITYSVGSTYYADSVKGRFTISRDNEKNTVYLQMNSLKPEDTAVYYCAYYYWGQGTQVTVSS,low polyreactivity
10,QVQLVESGGGLVQAGGSLRLSCAASGRTFKDYAMGWYRQAPGKERELVAGINGSGGSTYYADSVKGRFTISRDYAKNTVYLQMNSLKPEDTAVYYCNADFGYWWDGRRYDYWGQGTQVTVSS,low polyreactivity
11,QVQLVESGGGLVQAGGSLRLSCAASGRTFKGYAMGWYRQAPGKERELVAAITGSVGSTYYADSVKGRFTISRDNAKNTVYLQMNSLKPEDTAVYYCAKRWKATRARYDYWGQGTQVTVSS,high polyreactivity
12,QVQLVESGGGLVQAGGSLRLSCAASGRTFKHYVMGWYRQAPGKERELVATISGGGGTYFADSVKGRFTISRYNAKYTVYLQMNSLKPEVTAVYYCAARYPRGSRTWSFDSNKQRDYWGQGTQVTVSS,low polyreactivity
13,QVQLVESGGGLVQAGGSLRLSCAASGRTFKKYAMGWYRQAPGKERELVAAITGSGGSTYYADSVKGRFTISRDNAKNTVYLQMNSLKPEDTAVYYCAAEVVAQMNYWGQGTQVTVSS,low polyreactivity
14,QVQLVESGGGLVQAGGSLRLSCAASGRTFKKYAMGWYRQAPGKERELVAAITGSGGSTYYADSVKGRFTISRDNAKNTVYLQMNSLKPEDTAVYYCAAYAYGVWHSQDGGNYWGQGTLVTVSS,low polyreactivity
15,QVQLVESGGGLVQAGGSLRLSCAASGRTFKLYAMGWYRQAPGKERELVAALSIRGTSTYYADSVKGRFTISRDNAKNTVYLQMNSLKPEDTAVYYCAAEDRYGYYLVRWQGYYYWGQGTQVTVSS,low polyreactivity
16,QVQLVESGGGLVQAGGSLRLSCAASGRTFKNYAMGSYRQAPGKERELVAAISWRSGSTNYADSVKGRCTISRDNAKNTVYLQMNSLKPEDTAVYYCARKRRISGWSQFTSYADFDYWGQGSQVTVSS,low polyreactivity

row,Sequence,polyreactivity (PSR sort gate)
1,QVQLVESGGGLVQAGGSLRLSCAASGRTFKNYAMGWYRQAPGKERELVAAISRRGSSTYYADSVKGRFTISRDNAKNTVYLQMNSLKPEDTAVYYCNAVKFTYGWLGYWGQGTQVTVSS,high polyreactivity
2,QVQLVESGGGLVQAGGSLRLSCAASGRTFKPYAMGWYRQAPGIERELVARISGSGGSTYYADSVKGRFTISRDNGKNTVYLQLNSLKPEDTAVYYCATTPYYWFDYWGQGTQVTVSS,low polyreactivity
3,QVQLVESGGGLVQAGGSLRLSCAASGRTFKPYAMGWYRQAPGKERELVAAISSGVSTHYADSVKGRFTISRDNAKNTVYLQMNSLKPEDTAVYYCAADRSSQFDLDYWGQGTRVTVSS,low polyreactivity
4,QVQLVESGGGLVQAGGSLRLSCAASGRTFKPYAMGWYRQAPGKERELVAVISSTGSTKYADSVKGRFTISRDNAKNTVYLQMNSLKPEDTAVYYCAAQNTYIYYWGQGTQVTVSS,high polyreactivity
5,QVQLVESGGGLVQAGGSLRLSCAASGRTFKQYAMGCYRQAPGKERELVAVITRTGGSTYYADSVKGRFTISRDNAKNTVYLLMNSLKPEDTAVYYCARYPPRGYIAWRYYDYDYWGQGTQVTVSS,high polyreactivity
6,QVQLVESGGGLVQAGGSLRLSCAASGRTFKSYALGWYRQAPGKERELVATITRDGRTNYADSVKGRFTISRDNAKNTVYLQMNSLKPEDTAVYYCNADSRYRYDYWGQGTQVTVSS,low polyreactivity
7,QVQLVESGGGLVQAGGSLRLSCAASGRTFKTYAMVWYRQAPGKERELVAAISRDGRTYYADSVKGRFTISRDNAKNTVYLQMNSLKPEDTAVYYCNKRSYRNGDYWGQGTQVTVSS,low polyreactivity
8,QVQLVESGGGLVQAGGSLRLSCAASGRTFKVYAMGWYRPAPGKERELVAAISGSGGSTYYADSVKGRFTISRDNAKNTVYLQMNSLKPEDTAVYYCATDPSAPYTQLSSYYYWGQGTQVTVSS,low polyreactivity
9,QVQLVESGGGLVQAGGSLRLSCAASGRTFKWYAMGWYRQAPGKERELVAAISSSGSTYYADSVKGRFTISRDNAKNTVYLQMNSLKPEDTAVYYCAVLRRYLVGNLVGYNYWGQGTQVTVSS,high polyreactivity
10,QVQLVESGGGLVQAGGSLRLSCAASGRTFKYNAMGWYRQAPGKEREFVAAISSRGGSTYYADSVKGRFTISRDNAKNTVYLQMNSLKPEDTAVYYCNKLYGTRWSGLADDYWGQGTQVTVSS,high polyreactivity
11,QVQLVESGGGLVQAGGSLRLSCAASGRTFKYNAMGWYRQAPGKERELVAAISSRGGSTYYADSVKGRFTISRDNAKNTVYLQMISLKPEDTAVYYGANATSSSEYGYDYWGQGTQVTVSS,high polyreactivity
12,QVQLVESGGGLVQAGGSLRLSCAASGRTFKYNVMGWYRPAPGKERELVAAISSGGGTNYADSVKGRFTISRDNAKKTVYFQINSLKPEDTAVYYCAAKYAWRLLEMYYWGQGTQVTVSS,low polyreactivity
13,QVQLVESGGGLVQAGGSLRLSCAASGRTFKYYAMGCYRQARGKERELVAAISGSGGSTYYADSVKGRFTISRDNAKNTVYLQMNSLKPEDTAVYYCATGGGKTRSYNYWGKGTQVTVSS,high polyreactivity
14,QVQLVESGGGLVQAGGSLRLSCAASGRTFKYYAMGWYRQAPGKERELVAAISRSGGSTYADSVKGRFTISRDNAKNTVYLQMNSLKPEDTAVYYCATGWWRQGVASFDYDYWGQGTQVTVSS,high polyreactivity
15,QVQLVESGGGLVQAGGSLRLSCAASGRTFKYYAMGWYRQAPGKERELVAAISRSGGSTYYADSVKGRFTISRDNAKNTVYLQMNSLKPEDTAVYYCNAEYLWIRHIAEDYWGQGTQVTVSS,low polyreactivity
16,QVQLVESGGGLVQAGGSLRLSCAASGRTFKYYAMGWYRQAPGKERELVAAITTGGSTHYADSVKGRFTISRDNAKNTVYLQMNSLKPEDTAVYYCAAGPFARYDYWGQGTEVTVSS,low polyreactivity
